This is an account of results in patent US20240132603A1 (HARBOUR BIOMED US, published 2024).

A word on the EC50: it is the concentration that produces a half-maximal response.

Positions count from the first letter of the chain named. In names and notes the source's numbering stands. Like-named read-outs stand apart in the source and are kept apart here.

Assay [1] addresses T1, human CCR8 (human, UniProt P51685 1-355).
T1 construct: whole, on cells; construct used for the overexpressing cell lines is not described; also called hCCR8
As to the kind of experiment: FACS, CHO-K1-hCCR8 cells, Fab. As to the method: (§1) Cells overexpressing human CCR8 were digested with pancreatin, counted and resuspended to a cell density of 1E6 cells/mL. The cell suspension was added to a 96-well V-bottom plate at 100 μL/well and centrifuged at 300 g for 5 min, and the supernatant was discarded. The anti-CCR8 antibodies provided herein was used as a primary antibody and diluted in a 5-fold gradient with an FACS buffer (DPBS containing 2% FBS) from 200 nM. The diluted primary antibody was added at 100 μL/well to resuspend the cells, and the mixture was incubated at 4° C. for 1 h. The plate was washed twice with DPBS and centrifuged at 300×g for 5 min, and the supernatant was discarded. The secondary antibody diluted in a 1:1000 ratio with an FACS buffer was added at 100 μL/well to suspend the cells, and the mixture was incubated at 4° C. for 40 min. The plate was washed twice with DPBS and centrifuged at 300×g for 5 min, and the supernatant was discarded. DPBS was added at 200 μL/well to suspend the cells, and the mixture was loaded on an FACS machine for analysis.

Assay [2] has as its target T1, human CCR8. Description: FACS, Baf3-hCCR8 cells. As to the method: as §1
(A flow cytometer gives signals particle by particle.)

Assay [3] has as its target T1, human CCR8. As to the kind of experiment: cell-based or functional assay.
Assay [4] deals with T1, human CCR8. Description: FACS, CHO-K1-hCCR8 cells. How it is done: as §1
The target of assay [5] is T1, human CCR8. Description: FACS, HEK293-hCCR8 cells. As to the method:
as §1

Assay [6] concerns the target T1, human CCR8. As to the kind of experiment: FACS, HEK293-hCCR8 cells. As to the method: as §1
The source holds these as a separate data set.

Assay [7] deals with T1, human CCR8. Description: FACS competition on HEK293-hCCR8 cells against a biotin-labelled anti-CCR8 antibody at its EC80; the labelled antibody of this panel is not named on the sheet. As to the method: (§2) The antibody was conjugated with Sulfo-NHS-LC-Biotin at a molar ratio of 5:1 (1 mol antibody was added to 5 mol Sulfo-NHS-LC-Biotin) with reference to the product instructions (ThermoFisher, Cat No. A39257) and incubated on ice for 2 h. The coupled antibody was purified with a Zeba desalting column (ThermoFisher, Cat No. 89882). Cells overexpressing human CCR8, HEK293-hCCR8, were added to a V-bottom 96-well plate at a density of 1E5 cells/well and centrifuged at 300 g for 5 min, and the supernatant was discarded. The competitive antibody was serially diluted in a ratio of 1:10 from 200 nM to obtain 8 concentration points. The Biotin-antibody and the competition antibody were mixed in a 1:1 ratio on an HEK293 cell line overexpressing human CCR8 by the binding EC₈₀ concentration. The cells in the 96-well plate were resuspended and incubated at 4° C. for 1 h. The plate was washed twice with DPBS at 200 μL/well. The secondary antibody diluted in a 1:1000 ratio was added at 100 μL/well, and the mixture was incubated at 4° C. for 40 min. The plate was washed twice with DPBS at 200 μL/well. Finally, DPBS was […] at 200 μL/well to suspend the cells, and the mixture was loaded on an FACS machine for analysis.

The target of assay [8] is T1, human CCR8. The description is as above. As to the method:
as §2
This is another data set of the same source.

Assay [9] deals with T1, human CCR8. The assay is described as above. How it is done: as §2
This is another data set of the same source.

Assay [10] has as its target T1, human CCR8. Described as above. As to the method: as §2
The source holds these as a separate data set.

Assay [11] deals with T1, human CCR8. The assay is described as above. How it is done:
as §2
This is another data set of the same source.

In assay [12] the target is T2, cynomolgus monkey CCR8 (cynomolgus monkey, UniProt G7NYJ2 1-355).
T2 construct: whole, on cells; also called CynoCCR8
T2 sequence (G7NYJ2 entry or part of it): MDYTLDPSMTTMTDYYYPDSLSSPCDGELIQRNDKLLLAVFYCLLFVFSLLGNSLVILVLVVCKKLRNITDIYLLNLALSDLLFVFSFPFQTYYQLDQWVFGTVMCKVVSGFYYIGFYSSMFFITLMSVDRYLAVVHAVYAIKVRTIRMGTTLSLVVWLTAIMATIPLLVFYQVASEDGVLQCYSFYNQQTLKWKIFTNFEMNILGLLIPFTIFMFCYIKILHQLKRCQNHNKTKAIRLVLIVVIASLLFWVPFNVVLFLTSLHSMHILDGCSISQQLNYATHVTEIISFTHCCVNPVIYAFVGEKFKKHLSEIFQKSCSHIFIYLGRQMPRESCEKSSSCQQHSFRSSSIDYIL
As to the kind of experiment: FACS, CHO-K1-CynoCCR8 cells. How it is done: as §1, with “cynomolgus monkey CCR8, CHO-K1-CynoCCR8,” for “human CCR8”

The target in assay [13] is T2, cynomolgus monkey CCR8. Description: FACS, CHO-K1-CynoCCR8 cells. How it is done:
as §1, with “cynomolgus monkey CCR8, CHO-K1-CynoCCR8,” for “human CCR8”
The source holds these as a separate data set.

Assay [14] addresses T1, human CCR8. As to the kind of experiment: FACS, CHO-K1-hCCR8 cells. As to the method: as §1
This is another data set of the same source.

T1 sequence (P51685 whole entry): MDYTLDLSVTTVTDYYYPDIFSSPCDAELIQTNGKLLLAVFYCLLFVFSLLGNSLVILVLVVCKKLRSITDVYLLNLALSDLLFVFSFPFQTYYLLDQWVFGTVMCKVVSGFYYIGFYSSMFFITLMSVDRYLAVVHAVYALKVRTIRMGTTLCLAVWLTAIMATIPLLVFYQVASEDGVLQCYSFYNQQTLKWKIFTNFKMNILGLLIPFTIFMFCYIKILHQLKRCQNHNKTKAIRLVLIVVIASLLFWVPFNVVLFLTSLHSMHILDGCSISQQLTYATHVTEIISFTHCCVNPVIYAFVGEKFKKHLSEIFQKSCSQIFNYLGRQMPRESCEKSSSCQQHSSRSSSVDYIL

B1: PR005750 (Fab, V domains shown)
VH: EVQLVESGGGLVKPGGSLRLSCAASGFTFSTYAMNWVRQAPGKGLEWVGRIRSKSNNYATYYADSVKDRFTISRDDSKSTLYLQMNSLKTEDTAVYYCVRGKENANYYAMDFWGQGTTVTVSS
VL: DIVMTQSPLSLPVTLGQPASISCRSSKSLLHSNAKIYLYWFQQRPGQSPRLLIYRMSNLASGVPDRFSGSGSGTDFTLKISRVEAEDVGVYYCMQHLEYPLTFGQGTKLEIKR
notes: Fab form of the same variable region as PR004666
As for B1, in the assay with human CCR8 [1], a half-maximal effect (EC50) was put at 1.56 nM.

B2: PR005763 (Fab, V domains shown)
VH: B1 VH with N57Y, N104H, A105G, N106K
VL: B1 VL
Turning to B2, the EC50 with human CCR8 [1] turned out to be 0.62 nM.

B3: PR005787 (Fab, V domains shown)
VH: B1 VH with N57Y, N104I, A105G, N106K
VL: B1 VL
For the molecule B3, in the assay with human CCR8 [1], the response was half-maximal at 0.74 nM (EC50).

B4: PR005752 (Fab, V domains shown)
VH: B1 VH with N57Y, N104H, A105G
VL: B1 VL
On to B4, for which the EC50 in the assay with human CCR8 [1] came out at 0.69 nM.

B5: PR005751 (Fab, V domains shown)
VH: B1 VH with N104H, A105G
VL: B1 VL
Turning to B5, it took 1.1 nM to reach a half-maximal effect in the assay with human CCR8 [1] (EC50).

B6: PR005753 (Fab, V domains shown)
VH: B1 VH with N104I, A105G
VL: B1 VL
Consider B6, for which the EC50 in the assay with human CCR8 [1] was 1.19 nM.

B7: PR005754 (Fab, V domains shown)
VH: B1 VH with N57Y, N104I, A105G
VL: B1 VL
For the molecule B7, in the assay with human CCR8 [1], the EC50 amounted to 0.84 nM.

B8: PR004121 (antibody, human IgG1, kappa, V domains shown)
VH: EVQLVESGGGLVQPKGSLKLSCAASGFTFNTYAMNWVRQAPGKGLEWVARIRSKSNNYATYYADSVKDRFTISRDDSQNMLYLQMNNLKTEDTAMYYCVRGKENGNYYAMDFWGQGTSVTVSS
VL: DIVITQAAPSVPVTPGESVSISCRSSKSLLHSNGNTYLYWFLQRPGQSPQLLIYRMSNLASGVPDRFSGSGSGTAFTLRISRVEAEDVGVYYCMQHLEYPFTFGGGTKLEMKR
notes: chimeric, human IgG1 constant region
Turning to B8, the EC50 was 0.22 nM in the assay with human CCR8 [2], 0.41 nM with human CCR8 [4], 0.63 nM with human CCR8 [5] and 0.9 nM in the assay with human CCR8 [6]. Also, the “Bottom %, blocking of CCL1-stimulated calcium flux” value in the assay with human CCR8 [3] worked out at 0%. Moreover, in the assay with human CCR8 [3], the “IC50(nM), blocking of CCL1-stimulated calcium flux” value was 1.44 nM. Further, the “IC50 (read off the curve)” value with human CCR8 [7] is around 3 nM; in the assay with human CCR8 [8], around 2 nM; in the assay with human CCR8 [9] it was around 2 nM; with human CCR8 [10], around 2 nM; with human CCR8 [11], 1 to 2 nM.

B9: PR004252 (antibody, human IgG1, kappa)
heavy: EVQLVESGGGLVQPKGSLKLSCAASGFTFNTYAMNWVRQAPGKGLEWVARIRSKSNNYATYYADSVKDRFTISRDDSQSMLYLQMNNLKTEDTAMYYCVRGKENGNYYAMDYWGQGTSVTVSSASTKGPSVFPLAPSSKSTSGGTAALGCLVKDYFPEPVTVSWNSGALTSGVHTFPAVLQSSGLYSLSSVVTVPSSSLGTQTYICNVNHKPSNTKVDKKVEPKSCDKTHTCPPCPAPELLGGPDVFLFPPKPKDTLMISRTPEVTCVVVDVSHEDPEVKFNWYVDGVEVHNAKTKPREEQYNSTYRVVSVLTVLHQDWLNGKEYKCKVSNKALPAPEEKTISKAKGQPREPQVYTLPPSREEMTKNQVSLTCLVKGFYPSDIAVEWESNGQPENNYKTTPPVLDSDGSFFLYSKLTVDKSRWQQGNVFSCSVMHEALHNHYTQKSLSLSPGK
light: DIVMTQAAPSVPVTPGESVSISCRSNKSLLHSNGNTYLYWFLQRPGQSPQLLIYRMSNLASGVPDRFSGSGSGTAFTLRISRVEAEDVGVYYCMQHLEYPLTFGAGTKLEIKRTVAAPSVFIFPPSDEQLKSGTASVVCLLNNFYPREAKVQWKVDNALQSGNSQESVTEQDSKDSTYSLSSTLTLSKADYEKHKVYACEVTHQGLSSPVTKSFNRGEC
notes: PR004131 with S239D and I332E (DE) in the IgG1 constant region
Take B9: the results for the EC50 in the assay with human CCR8 [6] and with cynomolgus monkey CCR8 [12] were 0.98 nM and 3.32 nM, respectively.

B10: PR004251 (antibody, human IgG1, kappa)
heavy: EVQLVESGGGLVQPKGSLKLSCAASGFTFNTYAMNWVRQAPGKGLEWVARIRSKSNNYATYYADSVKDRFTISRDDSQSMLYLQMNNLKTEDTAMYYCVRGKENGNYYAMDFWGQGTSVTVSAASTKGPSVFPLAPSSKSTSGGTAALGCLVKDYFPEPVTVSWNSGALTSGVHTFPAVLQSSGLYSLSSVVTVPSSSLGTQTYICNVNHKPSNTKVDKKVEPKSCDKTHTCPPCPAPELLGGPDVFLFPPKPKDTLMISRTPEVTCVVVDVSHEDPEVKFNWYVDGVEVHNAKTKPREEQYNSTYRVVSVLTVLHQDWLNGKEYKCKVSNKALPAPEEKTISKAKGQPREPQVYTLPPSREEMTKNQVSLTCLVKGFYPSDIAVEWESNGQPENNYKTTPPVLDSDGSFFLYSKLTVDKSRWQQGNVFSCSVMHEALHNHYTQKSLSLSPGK
light: B9 light with N26S, N35K, T36I
notes: PR004128 with S239D and I332E (DE) in the IgG1 constant region
With B10, the EC50 in the assay with human CCR8 [6] is 3.69 nM; with cynomolgus monkey CCR8 [12], 8.26 nM.

B11: PR004249 (antibody, human IgG1, kappa)
heavy: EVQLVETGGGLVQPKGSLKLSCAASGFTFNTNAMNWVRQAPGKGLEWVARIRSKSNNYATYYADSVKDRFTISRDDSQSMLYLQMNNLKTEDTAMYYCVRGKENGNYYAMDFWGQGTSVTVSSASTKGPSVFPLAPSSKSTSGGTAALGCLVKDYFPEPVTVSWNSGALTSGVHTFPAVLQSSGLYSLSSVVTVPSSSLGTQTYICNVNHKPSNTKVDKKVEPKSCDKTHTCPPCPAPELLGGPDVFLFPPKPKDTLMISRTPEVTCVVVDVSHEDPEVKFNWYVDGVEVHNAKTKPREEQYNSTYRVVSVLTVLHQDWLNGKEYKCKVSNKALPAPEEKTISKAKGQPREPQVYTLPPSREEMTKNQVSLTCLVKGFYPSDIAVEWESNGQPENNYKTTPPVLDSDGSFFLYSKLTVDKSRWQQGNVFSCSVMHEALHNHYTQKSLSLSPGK
light: B9 light with N26S, I111L
notes: PR004122 with S239D and I332E (DE) in the IgG1 constant region
For B11, the EC50 with human CCR8 [6] was 1.22 nM; with cynomolgus monkey CCR8 [12] it was 3.42 nM.

B12: PR004131 (antibody, human IgG1, kappa)
heavy: not shown
light: B9 light
notes: as for B8
Regarding B12, the EC50 was 0.2 nM in the assay with human CCR8 [2]; 0.52 nM with human CCR8 [4]; 0.79 nM with human CCR8 [5]; 1.94 nM in the assay with human CCR8 [6]; 1.6 nM in the assay with cynomolgus monkey CCR8 [13]; 8.65 nM with cynomolgus monkey CCR8 [12]. In addition, the “Bottom %, blocking of CCL1-stimulated calcium flux” value with human CCR8 [3] came to 0%. In addition, the “IC50(nM), blocking of CCL1-stimulated calcium flux” value with human CCR8 [3] was 1.67 nM. Besides, the “IC50 (read off the curve)” value with human CCR8 [7] was around 3 nM; with human CCR8 [8], around 2 nM; in the assay with human CCR8 [9], around 2 nM; in the assay with human CCR8 [10], around 2 nM; with human CCR8 [11] it was 1 to 2 nM.

B13: PR004666 (antibody, human IgG1, kappa)
heavy: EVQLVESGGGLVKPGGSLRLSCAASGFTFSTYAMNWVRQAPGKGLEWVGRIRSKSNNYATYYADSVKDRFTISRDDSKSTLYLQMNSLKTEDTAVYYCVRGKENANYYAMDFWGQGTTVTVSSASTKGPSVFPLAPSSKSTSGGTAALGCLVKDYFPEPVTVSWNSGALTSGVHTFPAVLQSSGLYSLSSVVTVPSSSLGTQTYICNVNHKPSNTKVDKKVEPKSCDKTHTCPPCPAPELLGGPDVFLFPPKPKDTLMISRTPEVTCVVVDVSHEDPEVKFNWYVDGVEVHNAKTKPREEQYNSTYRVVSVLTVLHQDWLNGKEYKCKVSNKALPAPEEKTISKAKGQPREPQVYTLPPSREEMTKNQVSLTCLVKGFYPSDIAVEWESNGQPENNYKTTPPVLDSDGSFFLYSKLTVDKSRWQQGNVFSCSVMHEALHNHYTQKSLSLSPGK
light: DIVMTQSPLSLPVTLGQPASISCRSSKSLLHSNAKIYLYWFQQRPGQSPRLLIYRMSNLASGVPDRFSGSGSGTDFTLKISRVEAEDVGVYYCMQHLEYPLTFGQGTKLEIKRTVAAPSVFIFPPSDEQLKSGTASVVCLLNNFYPREAKVQWKVDNALQSGNSQESVTEQDSKDSTYSLSSTLTLSKADYEKHKVYACEVTHQGLSSPVTKSFNRGEC
notes: PTM site-removed humanized variant of PR004128, IgG1 with DE mutation
B13: the EC50 with human CCR8 [4] amounted to 0.44 nM; with human CCR8 [14], 0.466 nM; with cynomolgus monkey CCR8 [13], 0.37 nM.
